Laboratory results: the supplement of paper PMC6757056
± gives the standard deviation of the averaged measurements.

B1: library; a variant is named by its letters at N, in order (parent)
chain: GCUGUCACCGAGAAACUGUGAAGUAUAUCUUAAACCUGGGCACUUAAAAGAUAUAUGGAGUUAGUAGUGCAACCUGCUCGGUCUGAUGAGUCCNNNNNNGGACGAAACAGC

How the values were obtained:
cyclic di-GMP [1] = variants of: B1; assay: FACS-Seq fitted mean relative fluorescence mCherry/BFP without ligand (log10 relative fluorescence); HEK293T; ligand: cyclic di-GMP (c-di-GMP-II aptamer); higher = higher reporter protein expression; conditions: ligand present: no
How it was run: (§1)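 Lentivirally transduced HEK293T libraries carried an mCherry reporter with the ribozyme switch and an EF1α-BFP marker. Transduced cells were enriched, then incubated with or without ligand for 48 h and sorted into 6 bins by mCherry/BFP. Genomic DNA from each bin was PCR-amplified, barcoded and sequenced on MiSeq. Fluorescence was the fitted normal mean of log10(mCherry/BFP) bin counts, scaled to five spiked-in control ribozymes.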

cyclic di-GMP [2] = variants of: B1; assay: normalized RNA/DNA level without ligand (relative to sTRSVctl = 100) (log10 (% of sTRSVctl)); HEK293T; ligand: cyclic di-GMP (c-di-GMP-II aptamer); higher = less ribozyme self-cleavage, higher mRNA level; conditions: reporter: mCherry (pCS4076), ligand present: no
How it was run: (§2)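 Ribozyme switch library plasmids linked to reporters were introduced into HEK293T cells at 4 µg per 6-well well, with ligand, if any, added 1 h before. Total RNA was extracted with EDTA 72 h later, reverse-transcribed, amplified, barcoded and sequenced. RNA level was computed from RNA over DNA reads relative to a spiked-in non-cleaving sequence or the top sequences, then scaled and log-transformed. The top set was 25 sequences, values were ×100 and log10, and the cutoff was ≥100 DNA reads.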

cyclic di-GMP [3] = variants of: B1; assay: FACS-Seq fitted mean relative fluorescence mCherry/BFP with ligand (log10 relative fluorescence); HEK293T; ligand: cyclic di-GMP (c-di-GMP-II aptamer); ligand concentration (+) FACS-Seq: 1 mM; higher = higher reporter protein expression; conditions: ligand present: yes
How it was run: as §1

cyclic di-GMP [4] = variants of: B1; assay: normalized RNA/DNA level with ligand (relative to sTRSVctl = 100) (log10 (% of sTRSVctl)); HEK293T; ligand: cyclic di-GMP (c-di-GMP-II aptamer); ligand concentration (+) RNA-Seq: 1 mM; higher = less ribozyme self-cleavage, higher mRNA level; conditions: reporter: mCherry (pCS4076), ligand present: yes
How it was run: as §2

| Variant | FACS-Seq fitted mean (log10) (cyclic di-GMP [1]) | normalized RNA/DNA level without ligand (log10) (cyclic di-GMP [2]) | FACS-Seq fitted mean (log10) (cyclic di-GMP [3]) | normalized RNA/DNA level with ligand (log10) (cyclic di-GMP [4]) |
| --- | --- | --- | --- | --- |
| UGAAUC | -0.558 ± 0.0095 | 1.72 ± 0.011 | -0.4 ± 0.028 | 1.85 ± 0.083 |
| AGAGAA | -0.335 ± 0.073 | 1.33 ± 0.12 | -0.0362 ± 0.068 | 1.54 ± 0.1 |
| AGCAAU | -0.834 ± 0.048 | 1.74 ± 0.037 | -0.638 ± 0.037 | 1.87 ± 0.16 |
| AGCAAA | -0.531 ± 0.032 | 1.48 ± 0.042 | -0.277 ± 0.1 | 1.64 ± 0.14 |
| CGACAA | -0.57 ± 0.068 | 1.29 ± 0.15 | -0.273 ± 0.0065 | 1.54 ± 0.097 |
| CCUUUA | -0.242 ± 0.11 | 1.38 ± 0.062 | 0.149 ± 0.0049 | 1.64 ± 0.1 |
| GCUGUG | -0.283 ± 0.07 | 1.64 ± 0.018 | -0.00737 ± 0.013 | 1.79 ± 0.085 |
| GCUGUU | -0.596 ± 0.057 | 1.63 ± 0.059 | -0.418 ± 0.084 | 1.79 ± 0.082 |
| GCUGUA | -0.0986 ± 0.038 | 1.6 ± 0.04 | 0.213 ± 0.017 | 1.74 ± 0.12 |
| CGAAAA | -0.423 ± 0.02 | 1.26 ± 0.084 | -0.315 ± 0.07 | 1.47 ± 0.1 |
| CGAAAC | -0.432 ± 0.051 | 1.62 ± 0.048 | -0.267 ± 0.02 | 1.77 ± 0.097 |
| CGAGCG | -0.783 ± 0.013 | 1.81 ± 0.023 | -0.5474 ± 0.004 | 1.9 ± 0.12 |
| CCUUAG | -0.183 ± 0.044 | 1.64 ± 0.026 | 0.161 ± 0.06 | 1.83 ± 0.12 |
| CCUUAA | -0.397 ± 0.009 | 1.45 ± 0.092 | -0.161 ± 0.043 | 1.63 ± 0.12 |
| UGCGAG | -0.503 ± 0.0063 | 1.7 ± 0.039 | -0.177 ± 0.052 | 1.8 ± 0.081 |
| GGACCC | 0.129 ± 0.17 | 1.86 ± 0.022 | 0.32 ± 0.061 | 1.93 ± 0.086 |
| CGACUG | -0.0298 ± 0.017 | 1.703 ± 0.0006 | 0.297 ± 0.061 | 1.83 ± 0.074 |
| CGACUA | -0.6395 ± 0.004 | 1.35 ± 0.17 | -0.239 ± 0.0063 | 1.48 ± 0.053 |
